Source: the Immune Epitope Database (IEDB)
pIC50, pKd: −log10 of the molar value.

Columns and labels:
[1] = biological target: HLA-B*53:01; test: IEDB peptide-MHC binding, purified MHC/competitive/fluorescence; ≥ and ≤ were set here for values at or beyond the usual limits of such assays; details: source organism: human gammaherpesvirus 4
[2] = biological target: HLA-B*18:01; test: IEDB peptide-MHC binding, purified MHC/competitive/fluorescence; filed as Kd, often an IC50 or EC50 that approximates it; ≥ and ≤ were set here for values at or beyond the usual limits of such assays; details: source organism: Human herpesvirus 4 strain B95-8
[3] = biological target: HLA-A*01:01; test: IEDB peptide-MHC binding, purified MHC/direct/fluorescence; filed as Kd, often an IC50 or EC50 that approximates it; ≥ and ≤ were set here for values at or beyond the usual limits of such assays
[4] = biological target: HLA-A*02:01; test: as above; details: source organism: Mycobacterium tuberculosis
[5] = biological target: HLA-A*11:01; test: as above
[6] = biological target: HLA-A*31:01; test: as above
[7] = biological target: HLA-B*07:02; test: as above; details: source organism: Mycobacterium tuberculosis
[8] = biological target: HLA-B*15:01; test: as above
[9] = biological target: HLA-B*15:17; test: as above
[10] = biological target: HLA-B*18:01; test: as above
[11] = biological target: HLA-B*27:05; test: as above
[12] = biological target: HLA-B*40:01; test: as above
[13] = biological target: HLA-B*46:01; test: as above
[14] = biological target: HLA-B*48:01; test: as above
[15] = biological target: HLA-B*57:01; test: as above
[16] = biological target: HLA-B*58:01; test: as above
[17] = biological target: HLA-A*26:02; test: IEDB peptide-MHC binding, purified MHC/competitive/fluorescence; filed as Kd, often an IC50 or EC50 that approximates it; ≥ and ≤ were set here for values at or beyond the usual limits of such assays; details: source organism: Mycobacterium tuberculosis variant bovis BCG str. Pasteur 1173P2
[18] = biological target: HLA-A*26:03; test: as above; details: source organism: Mycobacterium tuberculosis variant bovis BCG str. Pasteur 1173P2
[19] = biological target: HLA-A*68:02; test: as above; details: source organism: Mycobacterium tuberculosis variant bovis BCG str. Pasteur 1173P2
[20] = biological target: HLA-A*69:01; test: as above; details: source organism: Mycobacterium tuberculosis variant bovis BCG str. Pasteur 1173P2
[21] = biological target: HLA-A*03:01; test: IEDB peptide-MHC binding, purified MHC/direct/fluorescence; filed as Kd, often an IC50 or EC50 that approximates it; ≥ and ≤ were set here for values at or beyond the usual limits of such assays; details: source organism: Influenza A virus (A/whooper swan/Mongolia/6/05(H5N1))
[22] = biological target: HLA-A*26:01; test: as above; details: source organism: Influenza A virus(A/swine/Shandong/fZC/2003(H9N2))
[23] = biological target: HLA-A*69:01; test: as above; details: source organism: Influenza A virus (A/whooper swan/Mongolia/6/05(H5N1))
[24] = biological target: HLA-A*80:01; test: as above; details: source organism: Influenza A virus (A/whooper swan/Mongolia/6/05(H5N1))
[25] = biological target: HLA-C*05:01; test: as above; details: source organism: Influenza A virus (A/Fort Monmouth/1/1947-mouse adapted(H1N1))
[26] = biological target: HLA-A*02:03; test: IEDB peptide-MHC binding, purified MHC/competitive/fluorescence; filed as Kd, often an IC50 or EC50 that approximates it; ≥ and ≤ were set here for values at or beyond the usual limits of such assays; details: source organism: Influenza A virus (A/Fort Monmouth/1/1947-mouse adapted(H1N1))
[27] = source organism: Mycobacterium tuberculosis
[28] = source organism: Influenza A virus (A/whooper swan/Mongolia/6/05(H5N1))

LASAMRMLW
pIC50 [1]: 7.11 | pKd [2]: 5.64

QVFKGVVIR
pKd [3, 27]: ≤ 4.70 | pKd [4]: ≤ 4.70 | pKd [5, 27]: 6.16 | pKd [6, 27]: 7.00 | pKd [7]: ≤ 4.70 | pKd [8, 27]: ≤ 4.70 | pKd [9, 27]: ≤ 4.70 | pKd [10, 27]: ≤ 4.70 | pKd [11, 27]: ≤ 4.70 | pKd [12, 27]: ≤ 4.70 | pKd [13, 27]: ≤ 4.70 | pKd [14, 27]: ≤ 4.70 | pKd [15, 27]: ≤ 4.70 | pKd ([16]; source organism: Mycobacterium tuberculosis str. Haarlem): ≤ 4.70 | pKd [17]: ≤ 4.70 | pKd [18]: ≤ 4.70 | pKd [19]: 5.75 | pKd [20]: ≤ 4.70

SSDDFALIV
pKd [3, 28]: 6.95 | pKd [21]: ≤ 4.70 | pKd [5, 28]: ≤ 4.70 | pKd [22]: ≤ 4.70 | pKd [6, 28]: ≤ 4.70 | pKd [23]: 7.73 | pKd [24]: 6.65 | pKd [8, 28]: ≤ 4.70 | pKd [9, 28]: 6.64 | pKd [10, 28]: ≤ 4.70 | pKd [11, 28]: ≤ 4.70 | pKd [12, 28]: ≤ 4.70 | pKd [13, 28]: ≤ 4.70 | pKd [14, 28]: ≤ 4.70 | pKd [15, 28]: ≤ 4.70 | pKd [16, 28]: ≤ 4.70 | pKd [25]: 7.80 | pKd [26]: ≤ 4.70
